In US20180185504A1 (Regeneron, published 2018):

Assays:
[1] = biological target: T1, human PRLR on cells (endogenous on T47D, T47D#11, MCF7); introduced in HEK293/hPRLR/STAT5-Luc, 293/hPRLR, … (human, UniProt P16471 25-622); assay: FACS on T47D cells
T1 construct: no tag is stated for these lines; also called prolactin receptor
T1 sequence: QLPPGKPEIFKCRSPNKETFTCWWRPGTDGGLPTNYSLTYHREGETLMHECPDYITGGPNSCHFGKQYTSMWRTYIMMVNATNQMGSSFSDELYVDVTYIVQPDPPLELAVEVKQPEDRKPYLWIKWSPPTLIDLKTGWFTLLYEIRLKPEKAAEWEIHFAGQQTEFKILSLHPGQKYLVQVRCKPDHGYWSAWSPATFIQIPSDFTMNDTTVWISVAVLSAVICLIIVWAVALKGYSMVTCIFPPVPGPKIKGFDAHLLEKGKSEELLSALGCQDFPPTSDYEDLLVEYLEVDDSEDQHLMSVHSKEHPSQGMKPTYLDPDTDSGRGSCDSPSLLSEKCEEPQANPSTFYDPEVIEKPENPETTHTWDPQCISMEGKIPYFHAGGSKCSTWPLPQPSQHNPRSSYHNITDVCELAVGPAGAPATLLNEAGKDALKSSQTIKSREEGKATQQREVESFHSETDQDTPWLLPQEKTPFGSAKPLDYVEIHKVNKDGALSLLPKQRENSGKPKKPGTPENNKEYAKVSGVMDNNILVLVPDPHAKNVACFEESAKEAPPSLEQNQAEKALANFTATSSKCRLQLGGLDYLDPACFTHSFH

[2] = biological target: T2, monkey macaca fascicularis PRLR construct with an HA tag on HEK293/mfPRLR cells (macaca fascicularis, UniProt A0A2K5WXK1 25-619); assay: FACS on HEK293/mfPRLR cells
T2 construct: stably transfected into HEK293
T2 sequence: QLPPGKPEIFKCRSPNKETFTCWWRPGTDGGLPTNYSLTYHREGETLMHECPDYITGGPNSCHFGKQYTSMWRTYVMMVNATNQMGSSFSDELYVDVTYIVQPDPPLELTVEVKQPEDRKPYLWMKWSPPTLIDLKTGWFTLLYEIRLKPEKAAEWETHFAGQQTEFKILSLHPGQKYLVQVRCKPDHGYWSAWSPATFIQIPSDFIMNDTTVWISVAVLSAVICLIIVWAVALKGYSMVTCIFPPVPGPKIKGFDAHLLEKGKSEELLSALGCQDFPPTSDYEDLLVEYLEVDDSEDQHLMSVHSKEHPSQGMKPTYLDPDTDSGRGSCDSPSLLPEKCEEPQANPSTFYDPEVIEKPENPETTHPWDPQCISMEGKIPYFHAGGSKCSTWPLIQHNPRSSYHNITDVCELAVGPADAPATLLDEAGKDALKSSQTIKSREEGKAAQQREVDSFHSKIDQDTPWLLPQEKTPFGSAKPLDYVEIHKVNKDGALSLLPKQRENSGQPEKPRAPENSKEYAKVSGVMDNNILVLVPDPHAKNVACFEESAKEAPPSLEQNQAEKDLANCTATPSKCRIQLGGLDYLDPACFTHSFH

[3] = biological target: T1, human PRLR on cells (endogenous on …); assay: cell-based or functional assay
[4] = biological target: T3, human PRLR construct with an HA tag on HEK293/hPRLR cells (human, UniProt P16471 25-622); assay: FACS on HEK293/hPRLR cells
T3 sequence: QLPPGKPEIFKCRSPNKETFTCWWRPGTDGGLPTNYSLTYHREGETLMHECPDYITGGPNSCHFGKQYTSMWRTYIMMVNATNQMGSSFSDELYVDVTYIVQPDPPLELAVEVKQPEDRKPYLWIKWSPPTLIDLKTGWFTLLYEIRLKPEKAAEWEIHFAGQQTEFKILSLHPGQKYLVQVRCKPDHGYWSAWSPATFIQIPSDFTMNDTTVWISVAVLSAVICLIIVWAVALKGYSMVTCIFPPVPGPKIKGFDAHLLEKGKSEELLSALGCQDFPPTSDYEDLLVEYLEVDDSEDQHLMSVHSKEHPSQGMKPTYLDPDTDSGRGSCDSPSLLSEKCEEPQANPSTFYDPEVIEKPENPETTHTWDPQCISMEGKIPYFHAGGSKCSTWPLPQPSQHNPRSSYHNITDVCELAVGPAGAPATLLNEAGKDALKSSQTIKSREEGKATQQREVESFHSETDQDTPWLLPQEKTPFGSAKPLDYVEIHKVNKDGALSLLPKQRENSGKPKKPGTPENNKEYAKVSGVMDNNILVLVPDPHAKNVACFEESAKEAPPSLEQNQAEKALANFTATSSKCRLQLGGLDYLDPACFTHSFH

[5] = biological target: T4, hPRLR.mFc (soluble dimeric human PRLR) (human); assay: SPR (Biacore), antibody capture, 37 C
T4 construct: dimeric PRLR construct
T4 chain: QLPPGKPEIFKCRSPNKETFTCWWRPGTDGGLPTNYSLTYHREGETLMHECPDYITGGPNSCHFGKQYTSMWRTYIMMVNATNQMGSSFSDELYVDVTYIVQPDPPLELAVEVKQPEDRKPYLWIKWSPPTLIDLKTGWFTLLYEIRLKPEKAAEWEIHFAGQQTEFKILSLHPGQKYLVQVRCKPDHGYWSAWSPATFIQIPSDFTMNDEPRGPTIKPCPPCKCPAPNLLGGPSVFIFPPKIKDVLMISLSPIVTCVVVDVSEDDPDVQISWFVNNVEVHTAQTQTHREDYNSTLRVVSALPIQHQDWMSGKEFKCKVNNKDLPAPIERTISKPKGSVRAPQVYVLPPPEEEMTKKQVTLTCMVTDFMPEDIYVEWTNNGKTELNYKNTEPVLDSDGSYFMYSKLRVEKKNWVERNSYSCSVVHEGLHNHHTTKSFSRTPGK
Procedure: (§1) Measurements were conducted on a T200 Biacore instrument. Kinetic association (kₐ) and dissociation (kd) rate constants were determined by processing and fitting the data to a 1:1 binding model using Scrubber 2.0 curve fitting software.

[6] = biological target: T5, mfPRLR.mmh (soluble monomeric macaca fascicularis PRLR) (macaca fascicularis); assay: SPR (Biacore), antibody capture, 37 C
T5 construct: soluble monomeric PRLR protein; also called macaca fascicularis (mf) PRLR.mmh; monkey PRLR
T5 chain: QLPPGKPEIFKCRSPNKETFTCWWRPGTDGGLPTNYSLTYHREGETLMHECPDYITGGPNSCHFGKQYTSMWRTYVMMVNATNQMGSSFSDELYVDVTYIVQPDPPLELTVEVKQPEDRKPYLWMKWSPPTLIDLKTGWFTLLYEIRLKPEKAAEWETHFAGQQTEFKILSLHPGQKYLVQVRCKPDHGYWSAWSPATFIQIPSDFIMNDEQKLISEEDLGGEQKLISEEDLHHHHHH
Procedure: as §1

[7] = biological target: T6, hPRLR.mmh (soluble monomeric human PRLR) (human); assay: SPR (Biacore), antibody capture, 37 C
T6 construct: soluble monomeric PRLR protein
T6 chain: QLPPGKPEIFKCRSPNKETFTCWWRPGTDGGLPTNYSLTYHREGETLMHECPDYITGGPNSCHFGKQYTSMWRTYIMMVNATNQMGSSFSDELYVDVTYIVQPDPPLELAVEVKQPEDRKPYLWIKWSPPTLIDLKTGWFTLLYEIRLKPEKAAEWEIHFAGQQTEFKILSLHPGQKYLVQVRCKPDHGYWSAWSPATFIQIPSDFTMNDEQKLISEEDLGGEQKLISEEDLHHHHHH
Procedure: as §1

Binder	FACS Cell Binding (Fold Above Background) [1] [fold]	FACS Cell Binding (Fold Above Background) [2] [fold]	Percent Blocking at 100 nM Antibody (STAT5-Luc reporter) [3] [%]	FACS Cell Binding (Fold Above Background) [4] [fold]	Kd [5] [nM]	T 1/2 [5] [min]	koff [5] [s⁻¹]	kon [5] [M⁻¹ s⁻¹]	Kd [6] [nM]	T 1/2 [6] [min]	koff [6] [s⁻¹]	kon [6] [M⁻¹ s⁻¹]	Kd [7] [nM]	T 1/2 [7] [min]	koff [7] [s⁻¹]	kon [7] [M⁻¹ s⁻¹]	IC50 of Blocking 5 nM PRL [M] (STAT5-Luc reporter, HEK293/hPRLR/STAT5-Luc cells) [3]
H1H6783P (antibody, human IgG1, V domains shown, human IgG1 Fc (H1H)) VH: QVQLQQSGPGLVKPSQTLSLTCAISGDSVSSNTFAWNWIRQSPSRGLEWLGRTYYRSKWYIDYAESVKSRITITPDTSKNQFSLQLNSVTPEDTALYYCAGGYTYAPRGAFDIWGQGTMVTVSS VL: not shown	38	27	59	37	0.282	83	0.000138	491000	4.74	9	0.0013	273000	3.91	7	0.00161	411000	–
H1H6774P (antibody, human IgG1, V domains shown, human IgG1 Fc (H1H)) VH: EVQLVESGGGLAQPGGSLRLSCVASGFTFSTYWMSWVRQAPGKGLDWVGNIKQDGSEQNYVDSVRGRFTISRDNAKNSLFLQMNSLRAEDTGVYYCATLLTKGDYWGQGTLVTVSS VL: DIQMTQSPSSLSASVGDSVTITCRASQDISNYLDWFQQKPGKAPKSLIYAASILQGGVPSRFSGSGYGTDFTLTISSLQPEDFATYYCRQYKTYPFTFGPGTKVDIK	39	29	0	1	0.138	60	0.000194	1.41e+06	5	3	0.00361	723000	2.95	4	0.00317	1.07e+06	–
H1H6792P (antibody, human IgG1, V domains shown, human IgG1 Fc (H1H)) VH: EVQLVESGGGLVQPGRSLRLSCAASGFTLDDHAVHWVRQAPGKGLEWVSGISWNSVYIDYADSVKGRFTIFRDNAKNSLYLQMNSLRAEDTAFYYCARDIEGARDYWGQGTLVTVSS VL: DIQMTQSPSSLSASVGDRVTITCRASQGIRNDLGWYQQKPGKAPKRLIYAASSLQSGVPSRFSGSGYGTEFTLTISSLQPEDFAPYYCLQHNSYPLTFGGGTKVEIK	37	28	100	37	0.352	66	0.000176	499000	9.37	4	0.00286	305000	5.27	5	0.00229	435000	5.7e-10

The next lines start with the values.

FACS Cell Binding (Fold Above Background) [1] [fold]	FACS Cell Binding (Fold Above Background) [2] [fold]	Percent Blocking at 100 nM Antibody (STAT5-Luc reporter) [3] [%]	FACS Cell Binding (Fold Above Background) [4] [fold]	Kd [5] [nM]	T 1/2 [5] [min]	koff [5] [s⁻¹]	kon [5] [M⁻¹ s⁻¹]	Kd [6] [nM]	T 1/2 [6] [min]	koff [6] [s⁻¹]	kon [6] [M⁻¹ s⁻¹]	Kd [7] [nM]	T 1/2 [7] [min]	koff [7] [s⁻¹]	kon [7] [M⁻¹ s⁻¹]	IC50 of Blocking 5 nM PRL [M] (STAT5-Luc reporter, HEK293/hPRLR/STAT5-Luc cells) [3]	Binder
34	27	100	32	0.09	105	0.00011	1.22e+06	0.448	32	0.000359	802000	0.31	34	0.000336	1.08e+06	6e-10	H1H6807P (antibody, V domains shown, human IgG1 Fc (H1H)) VH: QVQLVESGGGVVQPGRSLRLSCAASGFTFSDYNMHWVRQAPGKGLEWVAVIWYDGSNKHYADSVKGRFTISRDNSKNTLYLQMNSLRAEDTAVYYCARDGFTIFGMVLDYWGQGTLVTVSS VL: not shown
40	29	100	37	0.116	68	0.00017	1.47e+06	2.71	4.5	0.00256	947000	1.11	9.4	0.00122	1.1e+06	1.05e-10	H1H6953N (antibody, human IgG1, V domains shown, also called H1M6953N) VH: EVQLLESGGGLVQPGGTLRLSCAASGFTFSAYAMSWVRQAPGKGLEWVSSINVRAGDTYYADSVKGRFTISRDNSKNTLFLLMNSLRAEDTAAYYCAKARYSSNWGFDFWGQGTLVTVSS VL: DIVMTQSPDSLTVSLGARTTINCQSSQTILHSSNNHNYLAWYQQKPGLPPKLLIYWSSTRESGVPDRFSGSGSGTDFTLTISSLQAEDVAIYYCQQYSNTPYTFGQGTKLEIN
34	22	0	1	0.0402	149	7.77e-05	1.94e+06	6.16	2	0.00599	973000	3.81	2	0.0052	1.36e+06	–	H1H6795P (antibody, human IgG1, V domains shown, human IgG1 Fc (H1H)) VH: QVQLVQSGAEVKKPGASVKVSCKASGYTFGTSGITWVRQAPGQGLEWMGWSSAYNGKTDYAQKFQDRVTMTTDTSTTTGYMEMRSLTSDDTAVYYCTTVVRRPFDFWGQGTLVTVSS VL: DIQMTQSPSSLSASVGDRVTITCRASQDINNFLAWFQQKPGKAPKSLIYAASSLQSGVPSKFSGGGSGTDFALTISSLQPEDFATYYCQQYSSYPITFGQGTRLEIK
